# In the MegaScale stability set (Tsuboyama et al. 2023):
# B1: EEHEE_rd3_0130 (parent)
# chain: TKIIVNGKTFTAPTEEEAQKIAEKLAKKAGLTVHKKNGTFELK
# B2: r11_951_TrROS_Hall (parent)
# chain: KKKYVIKVYFEDTGKEVEIEAESKEEALEAAKRLAEELGLKIKKVEIYP
# Variants of: B1
# Assay: folding stability dG (cDNA display proteolysis); higher = more stable
# Conditions: PBS, room temperature
row,Variant,folding stability dG [kcal/mol]
1,TQIIVNGKTFTAPTEEEAQKIAEKLAKKAGLTVHKKNGTFELK [K2Q],0.574
2,TAIIVNGKTFTAPTEEEAQKIAEKLAKKAGLTVHKKNGTFELK [K2A],0.458
3,TEIIVNGKTFTAPTEEEAQKIAEKLAKKAGLTVHKKNGTFELK [K2E],0.085
4,TLIIVNGKTFTAPTEEEAQKIAEKLAKKAGLTVHKKNGTFELK [K2L],0.93
5,TYIIVNGKTFTAPTEEEAQKIAEKLAKKAGLTVHKKNGTFELK [K2Y],0.641
6,TIIIVNGKTFTAPTEEEAQKIAEKLAKKAGLTVHKKNGTFELK [K2I],0.742
7,THIIVNGKTFTAPTEEEAQKIAEKLAKKAGLTVHKKNGTFELK [K2H],0.273
8,TFIIVNGKTFTAPTEEEAQKIAEKLAKKAGLTVHKKNGTFELK [K2F],0.565
9,TDIIVNGKTFTAPTEEEAQKIAEKLAKKAGLTVHKKNGTFELK [K2D],0.156
10,TNIIVNGKTFTAPTEEEAQKIAEKLAKKAGLTVHKKNGTFELK [K2N],0.108
11,TRIIVNGKTFTAPTEEEAQKIAEKLAKKAGLTVHKKNGTFELK [K2R],0.793
12,TPIIVNGKTFTAPTEEEAQKIAEKLAKKAGLTVHKKNGTFELK [K2P],0.169
13,TWIIVNGKTFTAPTEEEAQKIAEKLAKKAGLTVHKKNGTFELK [K2W],0.519
14,TSIIVNGKTFTAPTEEEAQKIAEKLAKKAGLTVHKKNGTFELK [K2S],0.364
15,TCIIVNGKTFTAPTEEEAQKIAEKLAKKAGLTVHKKNGTFELK [K2C],1.16
16,TMIIVNGKTFTAPTEEEAQKIAEKLAKKAGLTVHKKNGTFELK [K2M],0.746
17,TGIIVNGKTFTAPTEEEAQKIAEKLAKKAGLTVHKKNGTFELK [K2G],-0.359
18,TVIIVNGKTFTAPTEEEAQKIAEKLAKKAGLTVHKKNGTFELK [K2V],0.501
19,TTIIVNGKTFTAPTEEEAQKIAEKLAKKAGLTVHKKNGTFELK [K2T],0.448
20,NKIIVNGKTFTAPTEEEAQKIAEKLAKKAGLTVHKKNGTFELK [T1N],0.378
21,VKIIVNGKTFTAPTEEEAQKIAEKLAKKAGLTVHKKNGTFELK [T1V],1.28

row,Variant,folding stability dG [kcal/mol]
1,PKIIVNGKTFTAPTEEEAQKIAEKLAKKAGLTVHKKNGTFELK [T1P],0.553
2,MKIIVNGKTFTAPTEEEAQKIAEKLAKKAGLTVHKKNGTFELK [T1M],0.565
3,HKIIVNGKTFTAPTEEEAQKIAEKLAKKAGLTVHKKNGTFELK [T1H],1.05
4,DKIIVNGKTFTAPTEEEAQKIAEKLAKKAGLTVHKKNGTFELK [T1D],-0.934
5,CKIIVNGKTFTAPTEEEAQKIAEKLAKKAGLTVHKKNGTFELK [T1C],0.97
6,KKIIVNGKTFTAPTEEEAQKIAEKLAKKAGLTVHKKNGTFELK [T1K],0.145
7,LKIIVNGKTFTAPTEEEAQKIAEKLAKKAGLTVHKKNGTFELK [T1L],0.508
8,GKIIVNGKTFTAPTEEEAQKIAEKLAKKAGLTVHKKNGTFELK [T1G],0.627
9,YKIIVNGKTFTAPTEEEAQKIAEKLAKKAGLTVHKKNGTFELK [T1Y],2.19
10,RKIIVNGKTFTAPTEEEAQKIAEKLAKKAGLTVHKKNGTFELK [T1R],0.322
11,QKIIVNGKTFTAPTEEEAQKIAEKLAKKAGLTVHKKNGTFELK [T1Q],0.151
12,AKIIVNGKTFTAPTEEEAQKIAEKLAKKAGLTVHKKNGTFELK [T1A],0.581
13,SKIIVNGKTFTAPTEEEAQKIAEKLAKKAGLTVHKKNGTFELK [T1S],0.636
14,FKIIVNGKTFTAPTEEEAQKIAEKLAKKAGLTVHKKNGTFELK [T1F],2.15
15,IKIIVNGKTFTAPTEEEAQKIAEKLAKKAGLTVHKKNGTFELK [T1I],1.37
16,EKIIVNGKTFTAPTEEEAQKIAEKLAKKAGLTVHKKNGTFELK [T1E],-0.989
17,WKIIVNGKTFTAPTEEEAQKIAEKLAKKAGLTVHKKNGTFELK [T1W],2.99
18,TKHIVNGKTFTAPTEEEAQKIAEKLAKKAGLTVHKKNGTFELK [I3H],-0.416
19,TKFIVNGKTFTAPTEEEAQKIAEKLAKKAGLTVHKKNGTFELK [I3F],0.035
20,I3D,-0.633
21,TKEIVNGKTFTAPTEEEAQKIAEKLAKKAGLTVHKKNGTFELK [I3E],-0.908

# Variants of: B2
# Assay: as above
# Conditions: PBS, room temperature
row,Variant,folding stability dG [kcal/mol]
1,KKKYVIKVYFEDTGKEVEIEAESKEEALEAAKRLAEELGLKIKKVEIYH [P49H],4.93
2,KKKYVIKVYFEDTGKEVEIEAESKEEALEAAKRLAEELGLKIKKVEIYY [P49Y],4.78
3,KKKYVIKVYFEDTGKEVEIEAESKEEALEAAKRLAEELGLKIKKVEIYI [P49I],4.72
4,KKKYVIKVYFEDTGKEVEIEAESKEEALEAAKRLAEELGLKIKKVEIYK [P49K],4.5
5,KKKYVIKVYFEDTGKEVEIEAESKEEALEAAKRLAEELGLKIKKVEIYR [P49R],4.5
6,KKKYVIKVYFEDTGKEVEIEAESKEEALEAAKRLAEELGLKIKKVEIYD [P49D],4.59
7,KKKYVIKVYFEDTGKEVEIEAESKEEALEAAKRLAEELGLKIKKVEIYE [P49E],4.66
8,KKKYVIKVYFEDTGKEVEIEAESKEEALEAAKRLAEELGLKIKKVEIYG [P49G],4.49
9,KKKYVIKVYFEDTGKEVEIEAESKEEALEAAKRLAEELGLKIKKVEIYQ [P49Q],4.71
10,KKKYVIKVYFEDTGKEVEIEAESKEEALEAAKRLAEELGLKIKKVEIYW [P49W],4.59
11,KKKYVIKVYFEDTGKEVEIEAESKEEALEAAKRLAEELGLKIKKVEIYS [P49S],4.62
12,KKKYVIKVYFEDTGKEVEIEAESKEEALEAAKRLAEELGLKIKKVEIYV [P49V],4.45
13,KKKYVIKVYFEDTGKEVEIEAESKEEALEAAKRLAEELGLKIKKVEIYT [P49T],4.62
14,KKKYVIKVYFEDTGKEVEIEAESKEEALEAAKRLAEELGLKIKKVEIYC [P49C],4.52
15,KKKYVIKVYFEDTGKEVEIEAESKEEALEAAKRLAEELGLKIKKVEIYM [P49M],4.69
16,KKKYVIKVYFEDTGKEVEIEAESKEEALEAAKRLAEELGLKIKKVEIYA [P49A],4.33
17,KKKYVIKVYFEDTGKEVEIEAESKEEALEAAKRLAEELGLKIKKVEIYN [P49N],4.68
18,KKKYVIKVYFEDTGKEVEIEAESKEEALEAAKRLAEELGLKIKKVEIYL [P49L],4.62
19,KKKYVIKVYFEDTGKEVEIEAESKEEALEAAKRLAEELGLKIKKVEIYF [P49F],4.6
20,KKKYVIKVYFEDTGKEVEIEAESKEEALEAAKRLAEELGLKIKKVEIVP [Y48V],4.45
21,KKKYVIKVYFEDTGKEVEIEAESKEEALEAAKRLAEELGLKIKKVEITP [Y48T],4.52
22,KKKYVIKVYFEDTGKEVEIEAESKEEALEAAKRLAEELGLKIKKVEISP [Y48S],4.2
23,KKKYVIKVYFEDTGKEVEIEAESKEEALEAAKRLAEELGLKIKKVEINP [Y48N],4.45

row,Variant,folding stability dG [kcal/mol]
1,KKKYVIKVYFEDTGKEVEIEAESKEEALEAAKRLAEELGLKIKKVEIMP [Y48M],4.4
2,KKKYVIKVYFEDTGKEVEIEAESKEEALEAAKRLAEELGLKIKKVEIHP [Y48H],4.44
3,KKKYVIKVYFEDTGKEVEIEAESKEEALEAAKRLAEELGLKIKKVEILP [Y48L],4.44
4,KKKYVIKVYFEDTGKEVEIEAESKEEALEAAKRLAEELGLKIKKVEIPP [Y48P],4.09
5,KKKYVIKVYFEDTGKEVEIEAESKEEALEAAKRLAEELGLKIKKVEICP [Y48C],4.46
6,KKKYVIKVYFEDTGKEVEIEAESKEEALEAAKRLAEELGLKIKKVEIGP [Y48G],4.33
7,KKKYVIKVYFEDTGKEVEIEAESKEEALEAAKRLAEELGLKIKKVEIIP [Y48I],4.43
8,KKKYVIKVYFEDTGKEVEIEAESKEEALEAAKRLAEELGLKIKKVEIRP [Y48R],4.36
9,KKKYVIKVYFEDTGKEVEIEAESKEEALEAAKRLAEELGLKIKKVEIDP [Y48D],4.13
10,KKKYVIKVYFEDTGKEVEIEAESKEEALEAAKRLAEELGLKIKKVEIKP [Y48K],4.2
11,KKKYVIKVYFEDTGKEVEIEAESKEEALEAAKRLAEELGLKIKKVEIEP [Y48E],4.1
12,KKKYVIKVYFEDTGKEVEIEAESKEEALEAAKRLAEELGLKIKKVEIFP [Y48F],4.64
13,KKKYVIKVYFEDTGKEVEIEAESKEEALEAAKRLAEELGLKIKKVEIQP [Y48Q],4.37
14,KKKYVIKVYFEDTGKEVEIEAESKEEALEAAKRLAEELGLKIKKVEIAP [Y48A],4.25
15,KKKYVIKVYFEDTGKEVEIEAESKEEALEAAKRLAEELGLKIKKVEIWP [Y48W],4.51
16,KKKYVIKVYFEDTGKEVEIEAESKEEALEAAKRLAEELGLKIKKVKIYP [E46K],4.22
17,KKKYVIKVYFEDTGKEVEIEAESKEEALEAAKRLAEELGLKIKKVYIYP [E46Y],4.61
18,KKKYVIKVYFEDTGKEVEIEAESKEEALEAAKRLAEELGLKIKKVWIYP [E46W],4.47
19,KKKYVIKVYFEDTGKEVEIEAESKEEALEAAKRLAEELGLKIKKVNIYP [E46N],4.19
20,KKKYVIKVYFEDTGKEVEIEAESKEEALEAAKRLAEELGLKIKKVPIYP [E46P],2.41
21,KKKYVIKVYFEDTGKEVEIEAESKEEALEAAKRLAEELGLKIKKVLIYP [E46L],4.38
22,KKKYVIKVYFEDTGKEVEIEAESKEEALEAAKRLAEELGLKIKKVTIYP [E46T],4.36
23,KKKYVIKVYFEDTGKEVEIEAESKEEALEAAKRLAEELGLKIKKVQIYP [E46Q],4.26

row,Variant,folding stability dG [kcal/mol]
1,KKKYVIKVYFEDTGKEVEIEAESKEEALEAAKRLAEELGLKIKKVSIYP [E46S],4.33
2,KKKYVIKVYFEDTGKEVEIEAESKEEALEAAKRLAEELGLKIKKVVIYP [E46V],4.66
3,KKKYVIKVYFEDTGKEVEIEAESKEEALEAAKRLAEELGLKIKKVRIYP [E46R],4.16
4,KKKYVIKVYFEDTGKEVEIEAESKEEALEAAKRLAEELGLKIKKVMIYP [E46M],4.49
5,KKKYVIKVYFEDTGKEVEIEAESKEEALEAAKRLAEELGLKIKKVERYP [I47R],3.79
6,KKKYVIKVYFEDTGKEVEIEAESKEEALEAAKRLAEELGLKIKKVENYP [I47N],3.89
7,KKKYVIKVYFEDTGKEVEIEAESKEEALEAAKRLAEELGLKIKKVEVYP [I47V],4.33
8,KKKYVIKVYFEDTGKEVEIEAESKEEALEAAKRLAEELGLKIKKVEYYP [I47Y],4.47
9,KKKYVIKVYFEDTGKEVEIEAESKEEALEAAKRLAEELGLKIKKVEAYP [I47A],4.17
10,KKKYVIKVYFEDTGKEVEIEAESKEEALEAAKRLAEELGLKIKKVEKYP [I47K],3.7
11,KKKYVIKVYFEDTGKEVEIEAESKEEALEAAKRLAEELGLKIKKVEEYP [I47E],4.33
12,KKKYVIKVYFEDTGKEVEIEAESKEEALEAAKRLAEELGLKIKKVEWYP [I47W],4.49
13,KKKYVIKVYFEDTGKEVEIEAESKEEALEAAKRLAEELGLKIKKVECYP [I47C],4.13
14,KKKYVIKVYFEDTGKEVEIEAESKEEALEAAKRLAEELGLKIKKVETYP [I47T],4.17
15,KKKYVIKVYFEDTGKEVEIEAESKEEALEAAKRLAEELGLKIKKVEMYP [I47M],4.53
16,KKKYVIKVYFEDTGKEVEIEAESKEEALEAAKRLAEELGLKIKKVESYP [I47S],4.24
17,KKKYVIKVYFEDTGKEVEIEAESKEEALEAAKRLAEELGLKIKKVELYP [I47L],4.48
18,KKKYVIKVYFEDTGKEVEIEAESKEEALEAAKRLAEELGLKIKKVEHYP [I47H],4.35
19,KKKYVIKVYFEDTGKEVEIEAESKEEALEAAKRLAEELGLKIKKVEGYP [I47G],4.06
20,KKKYVIKVYFEDTGKEVEIEAESKEEALEAAKRLAEELGLKIKKVEQYP [I47Q],4.25
21,KKKYVIKVYFEDTGKEVEIEAESKEEALEAAKRLAEELGLKIKKVEFYP [I47F],4.32
22,KKKYVIKVYFEDTGKEVEIEAESKEEALEAAKRLAEELGLKIKKVEPYP [I47P],4.04
23,KKKYVIKVYFEDTGKEVEIEAESKEEALEAAKRLAEELGLKIKKVEDYP [I47D],3.99
